The results in this text go back to patent US20170088605A1 (Novartis, published 2017).

The target of assay [1] is T1, BKV serotype IV chimeric infectious virus (VP1 of strain ITA-4) (BK virus serotype IV). Nature of the assay: cell-based or functional assay.
Assay [2] has as its target T2, BKV serotype III chimeric infectious virus (VP1 of isolate AS) (BK virus serotype III). Put plainly: cell-based or functional assay.
In assay [3] the target is T3, BKV serotype II chimeric infectious virus (VP1 of isolate SB) (BK virus serotype II). Put plainly: cell-based or functional assay.
Assay [4] concerns the target T4, BKV serotype I infectious virus (VP1) (BK virus serotype I, UniProt P03088 1-362).
T4 sequence (looked up): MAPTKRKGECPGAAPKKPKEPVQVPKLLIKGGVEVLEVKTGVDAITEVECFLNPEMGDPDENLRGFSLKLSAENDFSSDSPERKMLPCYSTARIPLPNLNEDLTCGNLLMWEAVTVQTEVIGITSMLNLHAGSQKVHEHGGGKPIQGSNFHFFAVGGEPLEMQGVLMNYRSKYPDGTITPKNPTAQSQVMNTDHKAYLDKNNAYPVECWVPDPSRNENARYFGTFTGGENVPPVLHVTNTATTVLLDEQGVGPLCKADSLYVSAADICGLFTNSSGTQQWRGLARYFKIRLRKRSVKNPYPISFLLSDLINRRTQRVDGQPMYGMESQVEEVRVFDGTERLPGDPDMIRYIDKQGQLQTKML
Nature of the assay: cell-based or functional assay.

Assay [5] deals with T5, BKV serotype I VP1 pentamer (BK virus serotype I, UniProt P03088 30-297).
T5 construct: also called serotype I pentamers; BKV-VP1 serotype I pentameric protein
Nature of the assay: SPR, antibody captured on Protein A.

Assay [6] addresses T1, BKV serotype IV chimeric infectious …. Nature of the assay: cell-based or functional assay. The source holds these as a separate data set.
Assay [7] addresses T2, BKV serotype III chimeric infectious …. Put plainly: cell-based or functional assay. The source holds these as a separate data set.
The target in assay [8] is T3, BKV serotype II chimeric infectious …. Nature of the assay: cell-based or functional assay. This is another data set of the same source.
The target in assay [9] is T4, BKV serotype I infectious virus (VP1). Put plainly: cell-based or functional assay. This is another data set of the same source.
Assay [10] concerns the target T3, BKV serotype II chimeric infectious …. Put plainly: cell-based or functional assay. The source holds these as a separate data set.
Assay [11] deals with T4, BKV serotype I infectious virus (VP1). Put plainly: cell-based or functional assay. This is another data set of the same source.
The next assay concerns the target T6, BKV serotype I VLP (BK virus serotype I, UniProt P03088 1-362).
T6 chain: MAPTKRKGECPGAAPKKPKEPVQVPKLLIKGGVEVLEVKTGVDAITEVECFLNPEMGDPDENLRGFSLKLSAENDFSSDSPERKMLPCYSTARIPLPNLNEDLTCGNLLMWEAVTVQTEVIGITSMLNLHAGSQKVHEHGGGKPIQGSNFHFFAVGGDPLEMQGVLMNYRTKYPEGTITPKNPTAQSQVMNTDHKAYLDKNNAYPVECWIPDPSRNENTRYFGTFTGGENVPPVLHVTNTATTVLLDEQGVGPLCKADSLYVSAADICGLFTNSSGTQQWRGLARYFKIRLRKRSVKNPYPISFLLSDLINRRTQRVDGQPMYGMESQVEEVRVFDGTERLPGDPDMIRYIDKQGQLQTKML

Assay [12] addresses JCV infectious virus, isolates Mad-1 and Mad-4 (VP1) (JC virus). Nature of the assay: cell-based or functional assay.
The target of assay [13] is pooled RAV virus (BKV serotype I, 20 amino acid changes throughout VP1) (BK virus serotype I). Nature of the assay: cell-based or functional assay.

Read-outs that look alike come from different tables or passages of the source. Bounds are passed on as bounds.

B1: EBB-C1975-A7 (antibody, V domains shown)
VH: QVQLVESGGGLVQPGGSLRLSCAASGFTVSRNYMSWVRQAPGKGLEWVSGIYSGGSTYYADSVKGRFTISRDYSKNTLSLQMNTLRVEDTAVYFCAREDEFWSGYSAGVDWGQGTLVTVSS
VL: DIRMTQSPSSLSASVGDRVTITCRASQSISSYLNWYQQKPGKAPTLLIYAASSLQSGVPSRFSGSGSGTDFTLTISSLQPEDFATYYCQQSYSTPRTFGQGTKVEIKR
Turning to B1, the “neutralization EC50” value in assay [1] is 0.28 µg/mL; in assay [2], over 100 µg/mL; in [3], 0.11 µg/mL; in assay [4] it was 0.024 µg/mL. The “neutralization EC90” value was 7.79 µg/mL in assay [1], over 100 µg/mL in assay [2], 14.2 µg/mL in [3] and 5.15 µg/mL in assay [4]. Further, the binding result in assay [5] is reported as “no binding”.

B2: NEG447A (antibody, human IgG1, lambda, V domains shown)
VH: QVQLQESGPGLVKPSETLSLTCTVSGGSISRDYWSWVRQPPGAGLEWIGNIYYSGSTNYNPSLKSRVTISVATNKKQFSLKLTSVTAADTAVYYCARVPGCSSTSCIDGWFDPWGQGILVTVSS
VL: QSVLTQPPSVSAAPGQKVTISCSGSSSNIGNTYVSWYQQLPGTAPKLLIYDNNKRPSGIPDRFSGSKSGTSATLGITGLQTGDEADYYCGTWDSSLSAWVFGGGTRLTVLG
Consider B2, for which the “neutralization EC50” value was 0.011 µg/mL in assay [6], over 100 µg/mL in assay [7], 0.11 µg/mL in [8] and 0.1 ng/mL in assay [9]. In addition, the “neutralization EC90” value in [6] was 0.26 µg/mL; in assay [7], over 100 µg/mL; in [8], 0.84 µg/mL; in [9], 0.094 µg/mL. In assay [10], the “activity (EC90), fold more potent than NEG447” value is about 8 fold.

B3: 2081-36-8 (antibody, V domains shown)
VH: QVQLQQSGAGLVRPGSSVKISCKTSGYAFSSYWMNWVKQRPGQGLEWIGQIYPGNGDTNYNGKFKGKATLTADKSSNTAYIQLNSLTSEDSAVYFCAREARQGYHYAMDYWGQGTSVTVSL
VL: EIVFTQSPTTMAAFPGEKITITCSASSMINSNYLHWYQQKPGFSPKVLIYRTSNLASGVPARFSGTGSGTSFSLTIGTMEAEDVATYYCQQGSNIFTFGSGTKLEIK
The term EC50 (read off the curve) denotes the concentration at which the effect is half-maximal. The low end stands for higher potency in that assay, the high end for lower potency in that assay. For the molecule B3, in assay [11], the “neutralization EC50” value was 0.147 µg/mL and the “neutralization EC90” value was 0.909 µg/mL. For the same molecule, in the assay with BKV serotype I VLP, the “EC50 (read off the curve)” value is about 0.3 nM.

B4: P8D11 (antibody, human IgG1, lambda)
heavy: not shown
light: QSVLTQPPSVSVAPGKTARITCGGDNIGSRPVHWYQQKPGQAPILVVYDDSNRPSGIPERFSGSNSGNTATLTISRVEAGDEADYYCQVWSSSTDHPFGGGTKVTVLGQPKAAPSVTLFPPSSEELQANKATLVCLISDFYPGAVTVAWKADSSPVKAGVETTTPSKQSNNKYAASSYLSLTPEQWKSHRSYSCQVTHEGSTVEKTVAPTECS
As to B4, the “neutralization EC50” value in assay [6] was 0.023 µg/mL; in assay [7] it was 0.092 µg/mL; in [12] it was 0.09 µg/mL; in assay [8] it was 0.089 µg/mL; in assay [9], 15 ng/mL. For the same molecule, the “neutralization EC90” value was determined as 0.39 µg/mL in assay [6]; 0.53 µg/mL in assay [7]; 2.76 µg/mL in assay [12]; 6.34 µg/mL in assay [8]; 0.24 µg/mL in [9]. Further, the “EC50 of neutralization, fold change against wild-type virus” value in assay [13] stood at 3.9 fold.
